{"source": "patent US9896495", "about": "(ZEALAND PHARMA A S, dated 2018)", "assay_in_all_cases": "cell-based or functional assay", "key": {"[1]": {"target": "T1, endogenous GLP-1 receptor of a murine insulinoma cell line (murine, UniProt O35659 22-463)", "T1 sequence (looked up)": "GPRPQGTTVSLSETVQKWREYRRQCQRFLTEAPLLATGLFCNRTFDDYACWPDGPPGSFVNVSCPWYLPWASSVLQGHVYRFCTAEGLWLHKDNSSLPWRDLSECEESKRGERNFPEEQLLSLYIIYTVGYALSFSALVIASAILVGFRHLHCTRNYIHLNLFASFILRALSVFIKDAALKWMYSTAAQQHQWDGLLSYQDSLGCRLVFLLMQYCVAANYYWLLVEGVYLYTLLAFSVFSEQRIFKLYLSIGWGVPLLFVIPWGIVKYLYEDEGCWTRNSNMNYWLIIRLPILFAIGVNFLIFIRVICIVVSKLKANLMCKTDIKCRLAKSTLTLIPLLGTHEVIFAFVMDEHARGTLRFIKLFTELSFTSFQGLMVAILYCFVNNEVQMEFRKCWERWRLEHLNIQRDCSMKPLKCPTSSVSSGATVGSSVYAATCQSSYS"}, "[2]": {"target": "endogenous glucagon receptor of primary rat hepatocytes (rat, UniProt P30082 27-485)", "sequence (P30082 27-485)": "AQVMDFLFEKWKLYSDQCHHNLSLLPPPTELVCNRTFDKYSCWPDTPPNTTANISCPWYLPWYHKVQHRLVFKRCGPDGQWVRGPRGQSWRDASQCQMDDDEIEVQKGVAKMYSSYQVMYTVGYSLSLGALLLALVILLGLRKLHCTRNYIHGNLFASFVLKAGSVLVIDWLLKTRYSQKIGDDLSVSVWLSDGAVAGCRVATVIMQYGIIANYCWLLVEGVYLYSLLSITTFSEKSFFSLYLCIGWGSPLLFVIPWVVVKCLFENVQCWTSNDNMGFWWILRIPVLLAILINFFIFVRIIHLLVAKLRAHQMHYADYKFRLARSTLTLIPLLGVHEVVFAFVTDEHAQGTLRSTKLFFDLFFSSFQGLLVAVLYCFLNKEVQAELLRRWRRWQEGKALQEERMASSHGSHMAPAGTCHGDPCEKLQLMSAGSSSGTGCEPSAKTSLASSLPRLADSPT"}, "[3]": {"target": "human glucagon-like peptide 1 receptor (GLP-1R) (human, UniProt P43220 24-463)"}, "[4]": {"target": "human glucagon receptor (Glucagon-R) (human, UniProt P47871 26-477)", "sequence (P47871 26-477)": "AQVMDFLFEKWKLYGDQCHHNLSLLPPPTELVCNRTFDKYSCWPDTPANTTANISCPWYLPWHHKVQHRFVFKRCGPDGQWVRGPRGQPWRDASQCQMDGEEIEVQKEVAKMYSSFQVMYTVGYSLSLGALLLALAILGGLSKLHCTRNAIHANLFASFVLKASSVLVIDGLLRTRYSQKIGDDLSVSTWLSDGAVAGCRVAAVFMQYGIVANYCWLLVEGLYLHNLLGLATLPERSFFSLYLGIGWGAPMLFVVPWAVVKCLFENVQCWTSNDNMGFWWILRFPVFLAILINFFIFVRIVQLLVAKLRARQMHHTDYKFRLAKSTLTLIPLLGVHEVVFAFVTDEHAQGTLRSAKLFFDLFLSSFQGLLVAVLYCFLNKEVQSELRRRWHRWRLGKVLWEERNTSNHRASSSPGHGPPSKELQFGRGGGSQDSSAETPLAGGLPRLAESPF"}}, "note": "*1 amine or outer side, *2 acyl side, *3 side chain or, on linkers, in order; H or OH if unused. Side-chain parts run from the residue outwards. [ ]: non-standard residue; d: D form. The star is where a group is joined. C18 diacid = O=C(O)CCCCCCCCCCCCCCCCC(=O)*; γGlu = O=C(O)[C@H](CCC(=O)[*:2])N[*:1]; Ac4c = NC1(C(=O)O)CCC1; Aib = CC(C)(N)C(=O)O", "data": [{"binder": "H-H[Ac4c]QGTFTSDYSKYLDEK([Peg3-Peg3-γGlu-C18 diacid])RAKDFIEWLESA-NH2", "note": "[H-H-Ac4c-QGTFTSDYSKYLDE-K([17-carboxy-heptadecanoyl]-isoGlu-Peg3-Peg3)-RAKDFIEWLESA-NH2]", "values": [{"measurement": "EC50 [nM] (cAMP in a murine insulinoma cell line)", "setting": "[1]", "value": 0.4, "unit": "nM"}, {"measurement": "EC50 [nM] (inhibition of glycogen synthesis rate in primary rat hepatocytes)", "setting": "[2]", "value": 1.79, "unit": "nM"}, {"measurement": "EC50 hGLP-1R CHO-K1 [nM] (cAMP, AlphaScreen)", "setting": "[3]", "value": 0.7, "unit": "nM"}, {"measurement": "EC50 hGCGR CHO-K1 [nM] (cAMP, AlphaScreen)", "setting": "[4]", "value": 0.45, "unit": "nM"}]}, {"binder": "HXQGTFTSDYSKYLDERRAKDFIKWLESA (Ac4c at position 2; Lys 24 side chain conjugated to [17-carboxy-heptadecanoyl]-isoGlu-GSGSGG; C-terminal amide)", "note": "[H-H-Ac4c-QGTFTSDYSKYLDERRAKDFI-K([17-carboxy-heptadecanoyl]-isoGlu-GSGSGG)-WLESA-NH2]", "values": [{"measurement": "EC50 [nM] (cAMP in a murine insulinoma cell line)", "setting": "[1]", "value": 0.38, "unit": "nM"}, {"measurement": "EC50 [nM] (inhibition of glycogen synthesis rate in primary rat hepatocytes)", "setting": "[2]", "value": 0.19, "unit": "nM"}, {"measurement": "EC50 hGLP-1R CHO-K1 [nM] (cAMP, AlphaScreen)", "setting": "[3]", "value": 0.6, "unit": "nM"}, {"measurement": "EC50 hGCGR CHO-K1 [nM] (cAMP, AlphaScreen)", "setting": "[4]", "value": 0.18, "unit": "nM"}]}, {"binder": "H-H[Ac4c]QGTFTSDYSKYLDERAAKDFIKWLESA-NH2 (not fully specified (residue 24))", "note": "[H-H-Ac4c-QGTFTSDYSKYLDERAAKDFI-K([17-carboxy-heptadecanoyl]-isoGlu-GSGSGG)-WLESA-NH2]", "values": [{"measurement": "EC50 [nM] (cAMP in a murine insulinoma cell line)", "setting": "[1]", "value": 0.37, "unit": "nM"}, {"measurement": "EC50 [nM] (inhibition of glycogen synthesis rate in primary rat hepatocytes)", "setting": "[2]", "value": 0.43, "unit": "nM"}, {"measurement": "EC50 hGLP-1R CHO-K1 [nM] (cAMP, AlphaScreen)", "setting": "[3]", "value": 0.33, "unit": "nM"}, {"measurement": "EC50 hGCGR CHO-K1 [nM] (cAMP, AlphaScreen)", "setting": "[4]", "value": 0.52, "unit": "nM"}]}, {"binder": "HXQGTFTSDYSKYLDSKAAHDFVEWLLSA (Aib at position 2; Lys 17 side chain conjugated to [15-carboxy-pentadecanoyl]-isoGlu; C-terminal amide)", "note": "[H-H-Aib-QGTFTSDYSKYLDS-K([15-carboxy-pentadecanoyl]-isoGlu)-AAHDFVEWLLSA-NH2]", "values": [{"measurement": "EC50 [nM] (cAMP in a murine insulinoma cell line)", "setting": "[1]", "value": 0.6, "unit": "nM"}, {"measurement": "EC50 [nM] (inhibition of glycogen synthesis rate in primary rat hepatocytes)", "setting": "[2]", "value": 0.85, "unit": "nM"}, {"measurement": "EC50 hGLP-1R CHO-K1 [nM] (cAMP, AlphaScreen)", "setting": "[3]", "value": 0.38, "unit": "nM"}, {"measurement": "EC50 hGCGR CHO-K1 [nM] (cAMP, AlphaScreen)", "setting": "[4]", "value": 0.21, "unit": "nM"}]}, {"binder": "HXQGTFTSDYSKYLEKRAAKDFIEWLESA (Aib at position 2; Lys 16 side chain conjugated to [17-carboxy-heptadecanoyl]-isoGlu-GSGSGG; C-terminal amide)", "note": "[H-H-Aib-QGTFTSDYSKYLE-K([17-carboxy-heptadecanoyl]-isoGlu-GSGSGG)-RAAKDFIEWLESA-NH2]", "values": [{"measurement": "EC50 [nM] (cAMP in a murine insulinoma cell line)", "setting": "[1]", "value": 0.54, "unit": "nM"}, {"measurement": "EC50 [nM] (inhibition of glycogen synthesis rate in primary rat hepatocytes)", "setting": "[2]", "value": 0.8, "unit": "nM"}, {"measurement": "EC50 hGLP-1R CHO-K1 [nM] (cAMP, AlphaScreen)", "setting": "[3]", "value": 1.43, "unit": "nM"}, {"measurement": "EC50 hGCGR CHO-K1 [nM] (cAMP, AlphaScreen)", "setting": "[4]", "value": 0.44, "unit": "nM"}]}, {"binder": "HXQGTFTSDYSKYLDEKAAKDFIEWLESA (Aib at position 2; Lys 17 side chain conjugated to [17-carboxy-heptadecanoyl]-isoGlu; C-terminal amide)", "note": "[H-H-Aib-QGTFTSDYSKYLDE-K([17-carboxy-heptadecanoyl]-isoGlu)-AAKDFIEWLESA-NH2]", "values": [{"measurement": "EC50 [nM] (cAMP in a murine insulinoma cell line)", "setting": "[1]", "value": 0.6, "unit": "nM"}, {"measurement": "EC50 [nM] (inhibition of glycogen synthesis rate in primary rat hepatocytes)", "setting": "[2]", "value": 1.53, "unit": "nM"}, {"measurement": "EC50 hGLP-1R CHO-K1 [nM] (cAMP, AlphaScreen)", "setting": "[3]", "value": 0.41, "unit": "nM"}, {"measurement": "EC50 hGCGR CHO-K1 [nM] (cAMP, AlphaScreen)", "setting": "[4]", "value": 1.08, "unit": "nM"}]}, {"binder": "H-H[Aib]QGTFTSDYSKYLEK([Peg3-Peg3-γGlu-C18 diacid])RAAHDFIEWLESA-NH2", "note": "[H-H-Aib-QGTFTSDYSKYLE-K([17-carboxy-heptadecanoyl]-isoGlu-Peg3-Peg3)-RAAHDFIEWLESA-NH2]", "values": [{"measurement": "EC50 [nM] (cAMP in a murine insulinoma cell line)", "setting": "[1]", "value": 0.36, "unit": "nM"}, {"measurement": "EC50 [nM] (inhibition of glycogen synthesis rate in primary rat hepatocytes)", "setting": "[2]", "value": 0.29, "unit": "nM"}, {"measurement": "EC50 hGLP-1R CHO-K1 [nM] (cAMP, AlphaScreen)", "setting": "[3]", "value": 0.8, "unit": "nM"}, {"measurement": "EC50 hGCGR CHO-K1 [nM] (cAMP, AlphaScreen)", "setting": "[4]", "value": 0.31, "unit": "nM"}]}, {"binder": "HXQGTFTSDYSKYLDKRAAKDFIEWLESA (Ac4c at position 2; Lys 16 side chain conjugated to [17-carboxy-heptadecanoyl]-isoGlu-GSGSGG; C-terminal amide)", "note": "[H-H-Ac4c-QGTFTSDYSKYLD-K([17-carboxy-heptadecanoyl]-isoGlu-GSGSGG)-RAAKDFIEWLESA-NH2]", "values": [{"measurement": "EC50 [nM] (cAMP in a murine insulinoma cell line)", "setting": "[1]", "value": 0.47, "unit": "nM"}, {"measurement": "EC50 [nM] (inhibition of glycogen synthesis rate in primary rat hepatocytes)", "setting": "[2]", "value": 0.34, "unit": "nM"}, {"measurement": "EC50 hGLP-1R CHO-K1 [nM] (cAMP, AlphaScreen)", "setting": "[3]", "value": 0.97, "unit": "nM"}, {"measurement": "EC50 hGCGR CHO-K1 [nM] (cAMP, AlphaScreen)", "setting": "[4]", "value": 0.11, "unit": "nM"}]}]}
